This is an account of results in paper PMC6166240.

Like-named read-outs stand apart in the source and are kept apart here.

Common to all, as to assay: X-ray crystallography
The target in data set [1] is T1, AbdB homeodomain with W motif (crystal construct);Exd homeodomain (crystal construct) (Drosophila;Drosophila, UniProt P09087-2;P40427 ;, |).
Data set [2] addresses T1, AbdB homeodomain with W motif (crystal …). This is another data set of the same source.
For data set [3], the target named is AbdB homeodomain with W motif (crystal construct) (Drosophila, UniProt P09087-2).
Chain of AbdB homeodomain with W motif (crystal construct) (P09087 369-452): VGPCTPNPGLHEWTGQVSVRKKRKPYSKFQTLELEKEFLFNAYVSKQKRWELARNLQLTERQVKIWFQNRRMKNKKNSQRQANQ
Data set [4] has as its target T1, AbdB homeodomain with W motif (crystal …). The source holds these as a separate data set.
Data set [5] shares this target. This is another data set of the same source.

T1 sequence (P09087 369-452, chain 1 of 2): as the sequence (P09087 369-452) above
T1 sequence (P40427 237-310, chain 2 of 2): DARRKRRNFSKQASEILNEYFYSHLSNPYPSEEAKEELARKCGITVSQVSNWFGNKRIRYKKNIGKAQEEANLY

B1: magenta (crystal) (dsDNA)
DNA 1: GCATGATTACGAC
DNA 2: GTCGTAATCATGC
With B1, the binding result in data set [1] is reported as “binds”.

B2: black (crystal) (dsDNA)
DNA 1: GCATGATAAATGAC
DNA 2: GTCATTTATCATGC
For the molecule B2, the binding result in data set [2] and in data set [3] was “binds” throughout.

B3: blue (crystal) (dsDNA)
DNA 1: GCATGATTAATGAC
DNA 2: GTCATTAATCATGC
For the molecule B3, the binding result in data set [4] was “binds”.

B4: red (crystal) (dsDNA)
DNA 1: GCATGATTTATGAC
DNA 2: GTCATAAATCATGC
For B4, the binding result in data set [5] was “binds”.
